{"source": "patent US20200277373A1", "about": "“ANTI-TREM2 ANTIBODIES AND METHODS OF USE THEREOF” (Denali Therapeutics Inc., priority 2017, published 2020)", "key": {"[1]": {"target": "T1, Human TREM2 expressing HEK cells (Homo sapiens, UniProt Q9NZC2)", "T1 construct": "expressed in transfected cells", "T1 sequence (O43914 22-113 partner, one chain of several)": "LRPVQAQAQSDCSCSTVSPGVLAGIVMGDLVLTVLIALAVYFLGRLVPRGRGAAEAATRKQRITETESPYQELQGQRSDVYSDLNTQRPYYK", "assay": "FACS surface binding on HEK 293 overexpressing human TREM2 (H6)", "conditions": "FIG. 1A, mixed cell lines", "procedure": "HEK 293 overexpressing human TREM2 (H6) and HEK 293 overexpressing GFP (B5) were harvested by 0.05% trypsin and incubated at 37° C. for 2 hours for surface TREM2 recovery. 293F overexpression mouse TREM2 were harvested and labelled with NucBlue live cell stain ReadyProbes reagent for 10 minutes (2 drops of reagent added per mL of media). After labeling, cells were washed twice with 1×PBS. NucBlue labeled 293F cells were mixed with H6 and B5 in FACS buffer (PBS-+-0.5% BSA) with human Trustain FcX solution (Biolegend, cat #422302) at a density of 10^6/mL per cell line. Mixed cell lines were seeded at 300,000 cells per well in a 96-well round-bottom and incubated 20 minutes at room temperature. After incubation, cells were centrifuged and test anti-TREM2 antibodies were added, then incubated for 45 minutes on ice. After incubation, cells were centrifuged and washed with FACS buffer three times. Cells were then incubated with secondary antibody (Alexa Fluor 647 AffiniPure F(ab′)2 fragment goat anti-mouse IgG, Fcγ fragment specific (1:200, Jackson ImmunoResearch, cat #115-606-071) for 30 minutes on ice. After incubation, cells were washed with FACS buffer three times and resuspended in 90 μL of FACS buffer, then analyzed by flow cytometry (BD FACSCanto II, San Jose, Calif.). 20,000 events were obtained for each sample."}, "human macrophages": {"system": "human macrophages", "assay": "Cell survival assay, human monocyte-derived macrophages, restricted or no M-CSF, CellTiter Glo", "type": "cell-based", "conditions": "plate coated antibody, 5 ng/mL or no M-CSF, day 6", "procedure": "TREM2 can support microglia energy homeostasis (Ulland et al., Cell, 2017, 170:649-663). […] To understand if enhancing TREM2 activity with TREM2 agonistic antibodies is sufficient for macrophage/microglia survival under limited M-CSF conditions, human macrophage differentiation and survival studies were performed using antibodies as described herein. Human monocytes isolated from peripheral blood were incubated with 5 ng/mL M-CSF in the presence of titrated concentrations of plate coated TREM2 antibodies or isotype controls. On day 6 cell viability was determined by CellTiter Glo viability assay."}, "TREM2 [2]": {"target": "T2, TREM2 (Homo sapiens, UniProt Q9NZC2)", "T2 construct": "macrophage cells that endogenously express TREM2; endogenous in cells; host or cells: primary human monocyte-derived macrophages from donor blood", "T2 sequence (Q9NZC2 19-230)": "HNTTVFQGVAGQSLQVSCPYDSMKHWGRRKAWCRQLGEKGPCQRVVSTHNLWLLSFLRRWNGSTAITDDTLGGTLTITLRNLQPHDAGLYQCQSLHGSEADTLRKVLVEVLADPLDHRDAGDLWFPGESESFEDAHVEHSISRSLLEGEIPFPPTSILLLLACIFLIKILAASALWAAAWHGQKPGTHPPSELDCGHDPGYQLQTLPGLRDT", "assay": "TREM2 pSyk antagonist assay on human macrophages (antibody pre-incubation, then liposomes)", "type": "cell-based", "conditions": "FIGS. 9C-9D, 30 nM antibody", "procedure": "Human macrophages were differentiated from donor blood using a human monocyte enrichment cocktail (Stem Cell Technologies) and culturing monocytes with human mCSF for five days in macrophage media (RPMI+10% Hyclone FBS+Glutamax+Pen/Strep+non-essential amino acids+sodium pyruvate). On the fifth day, the human macrophages were scraped from the flasks and were re-plated at 100,000 cells/well on a 96-well poly-D-lysine-coated plate in the macrophage media (without mCSF). The cells were incubated for 24 hours to adhere, then the media was removed.\nAntibodies diluted in RPMI alone were immediately added to the cells, and allowed to incubate for 30 minutes at 37° C. The antibodies were then removed. Lipid vesicles comprised of 70% DOPC and 30% POPS (made according to the procedure for making vesicles described above) in HBSS were added to the cells and incubated […] at 37° C. The liposome/antibody solution was removed, and 35 μL lysis buffer (Cell Signaling Technologies, CST) was added using the liquid handler. The lysate was then incubated at 4° C. for 30 minutes, then either frozen at −80° C. or immediately carried forward to a pSyk AlphaLISA assay as described above."}, "TREM2 [3]": {"target": "T3, TREM2 (Homo sapiens, UniProt Q9NZC2)", "T3 construct": "expressed in transfected cells", "assay": "pSyk antagonist assay on HEK293 TREM2/DAP12 cells", "type": "cell-based", "conditions": "FIGS. 9E-9G", "procedure": "These experiments were performed as follows. Two days in advance of the experiment, HEK293 cells stably overexpressing TREM2 and DAP12 were plated at 40,000 cells/well on a 96 well poly-D-lysine-coated plate. Antibodies diluted in DMEM alone were immediately added to the cells, and allowed to incubate for 30 minutes at 37° C. The antibodies were then removed. […] The liposome/antibody solution was removed, and 35 μL lysis buffer (Cell Signaling Technologies, CST) was added using the liquid handler. The lysate was then incubated at 4° C. for 30 minutes, then either frozen at −80° C. or immediately carried forward to a pSyk AlphaLISA assay as described above. The percent inhibition was calculated as in FIG. 9C.\nFIGS. 9F and 9G show inhibition by 21D4 and 21D11, respectively, at increasing antibody concentrations. These experiments were performed similarly to those described in FIG. 9E.", "T3 sequence (O43914 22-113 partner, one chain of several)": "as the sequence (O43914 22-113 partner, one chain of several) above"}}}
{"molecule": "RS9.F6: anti-TREM2 antibody clone; VH SEQ ID NO:24, VL SEQ ID NO:35 (antibody, V domains shown) VH: QVQLQQPGAELVKPGASVKLSCKASGYTFTSYWMHWVKQSPGRGLEWIGRSDPTTGGTNYNEKFKTKATLTVDKPSSTAYMQLSSLTSDDSAVYYCVRTSGTGDYWGQGTSLTVSS VL: DVVMTQTPLSLPVSLGDQASISCRSSQSLVHNNGNTFLHWYLQKPGQSPKLLIYKVSNRFSGVPDRFSGSGSGTDFTLKISRVEAEDLGVYFCSQTTHVPPTFGGGTKLEIK", "values": [{"measurement": "binding to human and mouse TREM2 HEK cells (in words)", "setting": "[1]", "result": "binding to both mouse and human TREM2 cells"}, {"measurement": "survival of human macrophages", "setting": "human macrophages", "result": "increased the survival"}]}
{"molecule": "21D11: anti-TREM2 antibody clone; VH SEQ ID NO:14, VL SEQ ID NO:25 (antibody, V domains shown) VH: QVQLQQSGAELARPGASVKLSCKASGYTFTSYWIQWVKQRPGQGLEWIGTIYPGDGDARYTQKFKGKATLTADKSSSTTYMQLNSLASEDSAVYYCARNGITTAGYYAMDYWGQGTSVTVSS VL: DIQMTQSPASLSVSVGETVTITCRASENIYSNLAWYQQKQGRSPQLLVYAATNLADGVPSRFSGSGSGTQYSLKINSLQSEDFGYYYCQHFWGTPYTFGGGTKVEIK", "values": [{"measurement": "liposome mediated pSyk signaling after antibody pre-incubation", "setting": "TREM2 [2]", "result": "blocked"}, {"measurement": "inhibition of liposome mediated pSyk", "setting": "TREM2 [3]", "result": "weaker antagonistic activity"}]}
